This series deals with the molecule itself. Put plainly: SEC; purified EGFP fusion of the luminal helix region alone on Superdex 200 increase 10/300 GL; 20 mM HEPES, 300 mM NaCl, 10% glycerol, 0.5 mM TCEP, pH 7.5; self-association judged from the elution volume. On the technique in general: SEC sorts molecules by how far they enter the pores of the column.

B1: EGFP-tagged luminal helix region of wild-type GRAMD1b (EGFP–helix: EGFP–GRAMD1b 674–718) (domain or fragment, human, UniProt Q3KR37-1 674-718, looked up)
chain: SQTEWAQLLESQQKYHDTELQKWREIIKSSVMLLDQMKDSLINLQ
notes: GRAMD1b, human, luminal helix region, residues 674-718; Predicted molecular weight ~35 kDa; also called EGFP-linker-GRAMD1b luminal helix; EGFP–(GGGS)3–GRAMD1b luminal helix (674–718); source: E. coli BL21-DE3 Rosetta, purified (Co-TALON or Ni-NTA, gel filtration on Superdex 200 increase); not shown: EGFP with (GGGS)3 linker, N-terminal, kept
For the protein B1, the binding result is “binds”.

Values taken from paper PMC6905856, “Movement of accessible plasma membrane cholesterol by the GRAMD1 lipid transfer protein complex” (eLife, 2019).
